These results are taken from IntAct's records for PubMed 20010697.

The labels stand for the following.
B1: Zinc finger protein ZFPM1 (Mus musculus), O35615 (parent)
chain: MSRRKQSNPRQIKRSLRDMEAGEEAKAMDSSPKEQEAPDPEAPAIEEPPSPPREDVSPPAVPAPPESPEDPEDMEGQELEMRPQDEEKEEKEEEAAMASPWSGPEELELALQDGQRCVRARLSLTEGLSWGPFYGSIQTRALSPEREEPGPAVTLMVDESCWLRMLPQVLTEEAANSEIYRKDDALWCRVTKVVPSGGLLYVRLVTEPHGAPRHPVQEPVEPGGLAPVHTDIQLLPQQAGMASILATAVINKDVFPCKDCGIWYRSERNLQAHLLYYCASRQRAGSPVSATEEKPKETYPNERVCPFPQCRKSCPSASSLEIHMRSHSGERPFVCLICLSAFTTKANCERHLKVHTDTLSGVCHNCGFISTTRDILYSHLVTNHMVCQPGSKGEIYSPGAGHPAAKLPPDSLAGFQQHSLMHSPLVPADKAPTPSSGLDSKAEVTNGETRVPPQNGGSSESPAAPRTIKVEAAEEPEATRASGPGEPGPQAPSRTPSPHSPNPVRVKTELSSPTPGSSPGPGELTMAGTLFLPQYVFSPDAGTTTVPTAPQASEILAKMSELVHNRLQQGAGSSGAAGTPTGLFSGTKGATCFECEITFNNINNFYVHKRLYCSGRRAPEDPPTVRRPKAATGPARAPAGAAAEPDPSRSSPGPGPREEEASGTTTPEAEAAGRGSEGSQSPGSSVDDAEDDPSRTLCEACNIRFSRHETYTVHKRYYCASRHDPPPRRPPAPTTAPGPAAPALTAPPVRTRRRRKLYELPAAGAPPPAAGPAPVPVVPSPTAELPSSPRPGSASAGPAPALSPSPVPDGPIDLSKRPRRQSPDAPTALPALADYHECTACRVSFHSLEAYLAHKKYSCPAAPLRTTALCPYCPPNGRVRGDLVEHLRQAHGLQVAKPAASPGAEPRTPAERAPRDSPDGRAPRSPSPAPENTPSDPADQGARTPSKGPPAPAPAPGGGGGHRYCRLCNIRFSSLSTFIAHKKYYCSSHAAEHVK
partner: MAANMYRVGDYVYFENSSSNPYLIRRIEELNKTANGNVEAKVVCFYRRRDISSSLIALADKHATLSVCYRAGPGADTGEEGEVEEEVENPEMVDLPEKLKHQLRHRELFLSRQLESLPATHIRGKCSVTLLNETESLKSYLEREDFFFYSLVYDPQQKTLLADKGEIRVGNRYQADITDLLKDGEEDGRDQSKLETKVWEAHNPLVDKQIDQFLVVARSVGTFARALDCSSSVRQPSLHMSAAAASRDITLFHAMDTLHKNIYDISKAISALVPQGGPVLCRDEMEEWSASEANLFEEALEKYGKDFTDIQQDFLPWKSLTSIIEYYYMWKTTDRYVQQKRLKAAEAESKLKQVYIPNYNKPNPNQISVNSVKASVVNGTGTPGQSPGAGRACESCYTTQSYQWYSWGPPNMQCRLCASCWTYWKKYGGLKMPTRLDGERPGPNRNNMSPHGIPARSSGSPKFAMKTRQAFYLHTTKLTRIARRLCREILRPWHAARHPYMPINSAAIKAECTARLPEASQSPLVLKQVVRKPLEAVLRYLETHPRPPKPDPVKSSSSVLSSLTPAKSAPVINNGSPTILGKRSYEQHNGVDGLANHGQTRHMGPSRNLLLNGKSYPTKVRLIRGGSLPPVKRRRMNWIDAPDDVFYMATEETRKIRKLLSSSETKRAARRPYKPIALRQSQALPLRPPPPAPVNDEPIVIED

Variants of B1 are the subject of this assay. The conditions noted are these: with mta1_rat Mta1, Q62599.
For the variant R3A, the “effect of a mutation on the interaction” value is recorded as “disrupting interaction”. Consider K5A, for which the “effect of a mutation on the interaction” value was “disrupting interaction”.
